The target of assay [1] is T1, human VEGF (human, UniProt P15692 207-395, biotinylated (site not stated)).
T1 construct: Biotinylated human VEGF generated internally; also called hVEGF; hVEGF-biotin
T1 sequence: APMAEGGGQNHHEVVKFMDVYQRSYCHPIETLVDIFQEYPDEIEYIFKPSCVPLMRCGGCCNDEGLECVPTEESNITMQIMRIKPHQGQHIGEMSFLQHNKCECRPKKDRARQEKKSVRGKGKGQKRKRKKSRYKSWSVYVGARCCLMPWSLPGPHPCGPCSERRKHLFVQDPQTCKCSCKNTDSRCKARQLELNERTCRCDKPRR
The assay is described as follows: Biacore SPR, Hu VEGF-biotin, 37 C.

Assay [2] deals with T2, human Factor P (human, UniProt P27918 28-469, biotinylated (site not stated)).
T2 construct: also called Factor P-biotin; Hu factor P-biotin
The assay is described as follows: Biacore SPR, Hu factor P-biotin, 37 C. (In general: SPR reads the build-up and loss of mass on a sensor chip optically.)

For assay [3], the target named is T2, human Factor P. The assay is described as follows: Biacore SPR, Factor P-biotin, 25 C.
For assay [4], the target named is T2, human Factor P. In words: Biacore SPR; affinity of NVS71T against untagged NVS71.
Assay [5] addresses T1, human VEGF. The assay is described as follows: Biacore SPR, Hu VEGF-biotin, 25 C.
Description: (§1) In order to determine target kinetics, two different formats were utilized. […] The second format is an anti-fab capture method in which the fab protein samples are captured and the target proteins flowed over at various concentrations.
(§2) The sample compartment which includes the analytes, ligands, and regeneration buffer, is kept at 15° C. All other running conditions were carried out at either 25° C. or 37° C. in 1×HBSE+P buffer. […] Data was collected at 10 Hz and analyzed using the Biacore T200 Evaluation Software (GE Healthcare®). This program uses a global fitting analysis method for the determination of rate and affinity constants for each interaction.
The target of assay [6] is T3, human TNFα (human, UniProt P01375 77-233, biotinylated (site not stated)).
T3 construct: also called TNFα-biotin; Hu TNFα-biotin
The assay is described as follows: Biacore SPR, Hu TNFα-biotin, 37 C.

The target in assay [7] is T3, human TNFα. The assay is described as follows: Biacore SPR; affinity of NVS73T against untagged NVS73.
Assay [8] deals with T3, human TNFα. The assay is described as follows: Biacore SPR, TNFα-biotin, 37 C.
Description: as §1, §2
Assay [9] has as its target T1, human VEGF. The assay is described as follows: Biacore SPR, hVEGF-biotin, 37 C.
The target in assay [10] is T4, IL-1β (human, UniProt P01584 117-269, biotinylated (site not stated)).
T4 construct: also called IL1β-biotin
In words: Biacore SPR, IL1β-biotin, 25 C.

6 molecules from US20170290876A1 (Novartis, published 2017) can be followed below.

T3 sequence (P01375 77-233 limits assumed): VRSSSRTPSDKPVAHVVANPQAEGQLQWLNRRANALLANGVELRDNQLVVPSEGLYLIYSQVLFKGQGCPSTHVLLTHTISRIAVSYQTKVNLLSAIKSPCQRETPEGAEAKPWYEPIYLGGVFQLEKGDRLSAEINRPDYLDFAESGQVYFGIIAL
T2 sequence (P27918 28-469 limits assumed): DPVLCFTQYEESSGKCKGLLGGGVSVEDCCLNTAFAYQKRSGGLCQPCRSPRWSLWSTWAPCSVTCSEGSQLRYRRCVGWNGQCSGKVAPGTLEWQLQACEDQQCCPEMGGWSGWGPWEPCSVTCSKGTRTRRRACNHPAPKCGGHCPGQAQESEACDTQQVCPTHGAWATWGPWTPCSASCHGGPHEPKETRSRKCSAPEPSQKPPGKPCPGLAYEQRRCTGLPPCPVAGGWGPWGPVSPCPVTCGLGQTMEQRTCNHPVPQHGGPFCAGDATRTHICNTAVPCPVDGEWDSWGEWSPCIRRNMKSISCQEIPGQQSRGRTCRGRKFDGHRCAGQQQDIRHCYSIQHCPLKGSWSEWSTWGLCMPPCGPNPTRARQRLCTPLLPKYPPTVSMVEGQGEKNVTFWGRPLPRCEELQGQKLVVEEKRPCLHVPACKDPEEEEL

B1: NVS82 (antibody, human IgG1, kappa, L234A L235A)
heavy: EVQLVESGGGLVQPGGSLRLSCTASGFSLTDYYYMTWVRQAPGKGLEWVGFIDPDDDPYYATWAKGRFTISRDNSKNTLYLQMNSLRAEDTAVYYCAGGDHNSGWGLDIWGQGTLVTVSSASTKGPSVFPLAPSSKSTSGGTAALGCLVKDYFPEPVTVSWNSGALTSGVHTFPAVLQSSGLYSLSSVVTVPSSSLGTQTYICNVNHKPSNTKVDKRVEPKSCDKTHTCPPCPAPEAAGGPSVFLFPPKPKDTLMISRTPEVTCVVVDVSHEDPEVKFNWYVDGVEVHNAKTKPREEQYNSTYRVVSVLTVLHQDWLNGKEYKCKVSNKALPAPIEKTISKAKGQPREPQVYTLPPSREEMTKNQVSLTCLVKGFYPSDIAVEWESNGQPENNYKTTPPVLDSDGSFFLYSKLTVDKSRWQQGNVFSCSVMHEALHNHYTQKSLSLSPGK
light: EIVMTQSPSTLSASVGDRVIITCQASEIIHSWLAWYQQKPGKAPKLLIYLASTLASGVPSRFSGSGSGAEFTLTISSLQPDDFATYYCQNVYLASTNGANFGQGTKLTVLKRTVAAPSVFIFPPSDEQLKSGTASVVCLLNNFYPREAKVQWKVDNALQSGNSQESVTEQDSKDSTYSLSSTLTLSKADYEKHKVYACEVTHQGLSSPVTKSFNRGEC
notes: also called IgG of NVS4
The Kd is the free concentration of one partner at which half of the binding sites on the other are occupied at equilibrium, for simple one-to-one binding. A low value points to tighter binding. As usually defined, the koff is the rate constant with which the complex falls apart. The term kon denotes the rate constant with which the complex forms. Read a low kon as slower complex formation. In assay [1], B1 showed a Kd of 7.64 pM, a koff of 2.34e-05 s⁻¹ and a kon of 3.06e+06 M⁻¹ s⁻¹.

B2: NVS71T (Fab, V domains shown)
VH: EVQLVQSGAEVKKPGSSVKVSCKASGGTFSSYAISWVRQAPGQGLEWMGRIIPIFGTANYAQKFQGRVTITADESTSTAYMELSSLRSEDTAVYYCARHGGYSFDSWGQGTLVTVSS
VL: SYELTQPPSVSVAPGQTARISCSGDNLGSKYVDWYQQKPGQAPVLVIYSDNNRPSGIPERFSGSNSGNTATLTISGTQAEDEADYYCQTYTSGNNYLVFGGGTKLTVLG
notes: Anti-Factor P Fab with HA tag at heavy chain C-terminus
In assay [2], B2 displayed a Kd of 95.5 pM, a koff of 0.000412 s⁻¹ and a kon of 4.31e+06 M⁻¹ s⁻¹. Further, in [3], the Kd turned out to be 95.5 pM, the koff was determined as 0.000412 s⁻¹ and the kon amounted to 4.31e+06 M⁻¹ s⁻¹. Moreover, the Fold improvement in assay [4] is 5.7 fold.

B3: NVS83 (scFv)
scFv: MEIVMTQSPSTLSASVGDRVIITCQASEIIHSWLAWYQQKPGKAPKLLIYLASTLASGVPSRFSGSGSGAEFTLTISSLQPDDFATYYCQNVYLASTNGANFGQGTKLTVLGGGGGGSGGGGSGGGGSSGGGSEVQLVESGGGLVQPGGSLRLSCTASGFSLTDYYYMTWVRQAPGKGLEWVGFIDPDDDPYYATWAKGRFTISRDNSKNTLYLQMNSLRAEDTAVYYCAGGDHNSGWGLDIWGQGTLVTVSSHHHHHH
notes: also called scFv of NVS4
In assay [5], B3 yielded a Kd of 6.75 pM, a koff of 9.18e-06 s⁻¹ and a kon of 1.36e+06 M⁻¹ s⁻¹.

B4: NVS73T (Fab, V domains shown)
VH: EVQLVESGGGSVQPGGSLRLSCTASGFTISRSYWICWVRQAPGKGLEWVGCIYGDNDITPLYANWAKGRFTISRDTSKNTVYLQMNSLRAEDTATYYCARLGYADYAYDLWGQGTTVTVSS
VL: EIVMTQSPSTLSASVGDRVIITCQSSQSVYGNIWMAWYQQKPGRAPKLLIYQASKLASGVPSRFSGSGSGAEFTLTISSLQPDDFATYYCQGNFNTGDRYAFGQGTKLTVLK
notes: Anti-TNFα Fab with HA tag at heavy chain C-terminus
In [6], B4 registered a Kd of 0.742 pM, a koff of 2.47e-05 s⁻¹ and a kon of 3.33e+07 M⁻¹ s⁻¹. This molecule also showed a Fold improvement in assay [7] of 35 fold. Besides, in [8], the affinity, expressed as Kd, was 0.742 pM; the koff worked out at 2.47e-05 s⁻¹; the kon came out at 3.33e+07 M⁻¹ s⁻¹.

B5: NVS1e (Fab)
heavy: EVQLVESGGGLVQPGGSLRLSCTASGFSLTDYYYMTWVRQAPGKGLEWVGFIDPDDDPYYATWAKGRFTISRDNSKNTLYLQMNSLRAEDTAVYYCAGGDHNSGWGLDIWGQGTLVTVSSASTKGPSVFPLAPSSKSTSGGTAALGCLVKDYFPEPVTVSWNSGALTSGVHTFPAVLQSSGLYSLSSVVTVPSSSLGTQTYICNVNHKPSNTKVDKRVEPKSCGS
light: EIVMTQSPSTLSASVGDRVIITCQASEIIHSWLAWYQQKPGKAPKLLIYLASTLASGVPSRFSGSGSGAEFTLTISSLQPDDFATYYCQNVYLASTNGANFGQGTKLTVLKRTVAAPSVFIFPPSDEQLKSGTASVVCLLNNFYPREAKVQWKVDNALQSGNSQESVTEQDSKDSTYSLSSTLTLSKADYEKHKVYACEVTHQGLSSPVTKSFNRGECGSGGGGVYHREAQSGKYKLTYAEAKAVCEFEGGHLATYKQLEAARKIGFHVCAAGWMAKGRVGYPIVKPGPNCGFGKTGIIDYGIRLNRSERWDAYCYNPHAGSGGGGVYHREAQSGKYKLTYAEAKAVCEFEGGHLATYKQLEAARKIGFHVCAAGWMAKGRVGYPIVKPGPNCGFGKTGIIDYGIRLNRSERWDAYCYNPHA
notes: NVS4 with two tandem HA tags at the light chain C-terminus
Regarding B5, in [9], the Kd was found to be 0.9 pM, the koff amounted to 1.26e-05 s⁻¹ and the kon amounted to 1.4e+07 M⁻¹ s⁻¹.

B6: NVS75T (Fab, V domains shown)
VH: QVQLVESGGGVVQPGRSLRLSCAASGFTFSVYGMNWVRQAPGKGLEWVAIIWYDGDNQYYADSVKGRFTISRDNSKNTLYLQMNGLRAEDTAVYYCARDLRTGPFDYWGQGTLVTVSS
VL: EIVLTQSPDFQSVTPKEKVTITCRASQSIGSSLHWYQQKPDQSPKLLIKYASQSFSGVPSRFSGSGSGTDFTLTINSLEAEDAAAYYCHQSSSLPFTFGPGTKVDIKR
notes: Anti-IL-1β Fab with HA tag; also called NCS75T
In [10], B6 showed a Kd of 14 pM, a koff of 6.9e-05 s⁻¹ and a kon of 4.95e+06 M⁻¹ s⁻¹.
